Values quoted from earlier work, collected in patent US20060122098A1, “System for infusing insulin to a subject to imporve impaired total body tissue glucose processing” (priority 2004, published 2006).

Details: in vivo

insulin
half-life: 5 min
